In patent publication US20220184222A1, “BICYCLE TOXIN CONJUGATES AND USES THEREOF” (BicycleTx Limited, priority 2019, published 2022):
“Also recorded” adds a separate entry of the source. Starred links: 1 amine or outer side, 2 acyl side, 3 side chain; linkers in the order of their positions; H or OH if unused. Non-standard residues stand in square brackets, D forms with d. Residues, ends and D or L forms follow the SMILES beside them. *: point of attachment. Dolaproine = CO[C@@H]([C@@H]1CCCN1)[C@@H](C)C(=O)O; Dil = CC[C@H](C)[C@H](NC)[C@@H](CC(=O)O)OC; PABC = O=C(OCc1ccc(N[*:1])cc1)[*:2]; X1 = O=C(CCCC(=O)*)ON1C(=O)CCC1=O; X2 = C[C@@H](N*)[C@@H](O)c1ccccc1; Cit = NC(=O)NCCC[C@H](N)C(=O)O; NMeV = CN[C@H](C(=O)O)C(C)C

Assay: In vivo PK in PC-3 CDX model: LC-MS quantitation of MMAE and BT5528 in plasma and tumour (Example 4)
Set-up: species or system Mus Musculus
Details: single i.v. dose of BT5528
Experimental: The objective of the research is to evaluate the in vivo PK/PD of test agents in treatment of PC-3 CDX model in Balb/c nude mice.
Each mouse was inoculated subcutaneously at the right flank with PC-3 tumor cells (10×10^6) in 0.2 mL of PBS for tumor development. The animals were randomized and dosed when the average tumor volume reached approximately 440 mm^3 for the PK/PD study. The test article administration and time points in each group were shown in the experimental design table.
Mice were randomly grouped based on tumor volume and dosed as experimental design. Plasma, serum, muscle and tumors were collected at 1 h, 2 h, 8 h, 24 h, 48 h, 72 h and 96 h post dosing.
Two protease inhibitor products were used: Complete™ mini EDTA-free protease inhibitor cocktail tablets and AEBSF (200 mM, prepared by dissolving 100 mg in water (2086 μL)). The AEBSF solution was stored at −20° C. when not in use. For the dilution of plasma, a solution (inhibitor solution A) was prepared by dissolving 12 Complete™ tablets in 50/50 methanol/water (12 mL) and adding 200 mM AEBSF (12 μL). […]
Samples, standards, QCs and blanks were transferred (10 μL diluted plasma, 30 μL tissue homogenate) to a 96-well plate on ice. […] The plate was mixed briefly and sealed ready for injection onto the LC-MS/MS. […]

## CC[C@H](C)[C@@H]([C@@H](CC(=O)N1CCC[C@H]1[C@H](OC)[C@@H](C)C(=O)N[C@H](C)[C@@H](O)c1ccccc1)OC)N(C)C(=O)[C@@H](NC(=O)[C@H](C(C)C)N(C)C(=O)OCc1ccc(NC(=O)[C@H](CCCNC(N)=O)NC(=O)[C@@H](NC(=O)CCCC(=O)ON2C(=O)CCC2=O)C(C)C)cc1)C(C)C [BT5528] (X1-V[Cit][PABC][NMeV]V[Dil][Dolaproine]-X2)
  MMAE concentrations in tumour: accumulation of MMAE in tumor tissue; also recorded: high MMAE concentrations in tumour, which is stable from 2h to >48h
  exposure of BT5528 and MMAE in plasma: short systemic exposure; also recorded: transient exposure of both BT5528 and MMAE in plasma
